Assay results from patent US20120263722A1 (AbbVie / Abbott, published 2012).

Biological target: T1, CD-22 on the cell surface (human, UniProt P20273 20-847)
T1 construct: whole, on cells
Assay: flow cytometry on cells carrying the target, antibody or DVD-Ig at 2 ug/mL
Description: Binding of monoclonal antibodies to the surface of human tumor cell fines was assessed by flow cytometry. For example, stable cell lines overexpressing a cell-surface antigen of interest or human tumor cell lines were harvested from tissue culture flasks and resuspended in phosphate buffered saline (PBS) containing 5% fetal bovine serum (PBS/FBS). Prior to staining, human tumor cells were incubated on ice with (100 μl) human IgG at 5 μg/ml in PBS/FCS. 1-5×10⁵ cells were incubated with antibody or DVD-Ig (2 μg/mL) in PBS/FBS for 30-60 minutes on ice. […] After 30 minutes incubation on ice, cells were washed twice and resuspended in PBS/PBS. Fluorescence was measured using a Becton Dickinson FACSCalibur (Becton Dickinson, San Jose, Calif.).
The geometric mean is the n root of the multiplication product of n fluorescent signals (a1×a2×a3 . . . an). With log-transformed data the geometric mean is used to normalize the weighting of the data distribution.

Row | Binder | N-Terminal VD GEO MEAN (FACS geometric mean)
1 | AB008 (antibody, V domains shown, Parent antibody; also called AB008VH; AB008VL) VH: QVQLVQSGAEVKKPGSSVKVSCKASGYTFTSYWLHWVRQAPGQGLEWIGYINPRNDYTEYNQNFKDKATITADESTNTAYMELSSLRSEDTAFYFCARRDITTFYWGQGTTVTVSS VL: DIQLTQSPSSLSASVGDRVTMSCKSSQSVLYSANHKNYLAWYQQKPGKAPKLLIYWASTRESGVPSRFSGSGSGTDFTFTISSLQPEDIATYYCHQYLSSWTFGGGTKLEIKR | 256
2 | DVD1883 (bispecific antibody, human IgG1, kappa, Outer domain anti-CD22 (AB008), inner domain anti-IL-6 (AB040); also called DVD1883H; DVD1883L) heavy: not shown light: DIQLTQSPSSLSASVGDRVTMSCKSSQSVLYSANHKNYLAWYQQKPGKAPKLLIYWASTRESGVPSRFSGSGSGTDFTFTISSLQPEDIATYYCHQYLSSWTFGGGTKLEIKRTVAAPQIVLIQSPAIMSASPGEKVTMTCSASSSVSYMYWYQQKPGSSPRLLIYDTSNLASGVPVRFSGSGSGTSYSLTISRMEAEDAATYYCQQWSGYPYTFGGGTKLEIKRTVAAPSVFIFPPSDEQLKSGTASVVCLLNNFYPREAKVQWKVDNALQSGNSQESVTEQDSKDSTYSLSSTLTLSKADYEKHKVYACEVTHQGLSSPVTKSFNRGEC | 223
